Reference: publication PMC5045412, “Inhibition of pro-HGF activation by SRI31215, a novel approach to block oncogenic HGF/MET signaling” (Oncotarget, 2016)

Assays:
DiFi cells = DiFi cells co-cultured with WI38 fibroblasts, immunoblotting; assay type: cell-based; details: gefitinib 0.5 μM
Method: Figure 7 Fibroblasts protect DiFi cells from EGFRi in an HGF-dependent manner DiFi cells were treated with gefitinib (0.5 μM) alone or were co-cultured with WI38 fibroblasts (FIB) in the absence or the presence of SRI 31215 (10 μM) or JNJ38877605 (1 μM). The DiFi cell lysates were isolated after 4 or 24 hours as indicated and examined for the expression of pERK and total ERK, pEGFR and total EGFR, cleaved PARP, β-catenin gelsolin and β-actin by immunoblotting.
Immunoblotting was performed using standard procedures. Membranes were blocked with 5% non-fat milk for 1 hour at RT, and incubated with primary antibodies overnight at 4°C. Primary antibodies used were anti-HGF (R&D Systems), anti-MET, anti-p-MET, anti-p-GAB1, anti-p-AKT, anti-p-ERK1/2, anti-vimentin (Cell Signaling Technology), anti-p-STAT3 (Upstate Cell Signaling Solutions), anti-E-cadherin (BD Transduction Laboratories), anti-β-actin (Sigma). Following washing with TBS-T buffer, membranes were incubated with horseradish peroxidase-conjugated secondary antibodies for 1 hour and then washed with TBS-T. Immunoblots were developed using the chemiluminescent detection system with ECL (Amersham). Protein loading was normalized by probing blots for the expression of β-actin.

recombinant human HGFA = target: T1, recombinant human HGFA (Homo sapiens, UniProt Q04756); assay: Proteolytic activation of pro-HGF by HGFA (immunoblotting); assay type: biochemical; details: SRI 31215 10 μM, HAI-1 20 nM, HGFA 1 nM
T1 construct: purchased R&D Systems
T1 sequence (Q04756 408-655 limits assumed): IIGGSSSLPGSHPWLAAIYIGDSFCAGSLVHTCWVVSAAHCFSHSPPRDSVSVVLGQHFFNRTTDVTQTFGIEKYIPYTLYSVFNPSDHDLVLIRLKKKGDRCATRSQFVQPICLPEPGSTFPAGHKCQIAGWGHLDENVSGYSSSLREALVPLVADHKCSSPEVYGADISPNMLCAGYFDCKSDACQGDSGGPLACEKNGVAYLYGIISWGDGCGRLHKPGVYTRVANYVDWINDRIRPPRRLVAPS
T1 sequence (Q04756 373-407 partner limits assumed): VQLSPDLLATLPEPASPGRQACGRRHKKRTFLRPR
Method: Recombinant human HAI-1, recombinant human HGFA, and recombinant human HGF propeptide (pro-HGF) were purchased from R&D Systems. SRI 31215 (10 μM) or recombinant human HAI-1 (20 nM) were mixed with activated recombinant human HGFA pro-peptide (1nM) in TNC buffer (pH 8.0) and incubated at room temperature for 30 minutes. Recombinant human pro-HGF (40 ng) was added and incubated at 37°C for 1 hour. The reaction was stopped by SDS-PAGE gel sample buffer and samples were boiled and separated by 12% PAGE. Proteins were transferred onto nitrocellulose membrane, blocked with 5% milk and immunoblotted using antibodies that recognize pro-HGF as well as α and β chains of activated HGF.

RKO cells = assay: Clonogenic growth and viability of HGF-producing RKO cells with EGFR inhibitors; assay type: cell-based; details: RKO cells, SRI 31215 10 μM, JNJ 38877605 1 μM, HAI-1 20 nM
Method: Figure 5 Inhibitors of HGF/MET signaling prevent the innate and acquired resistance to cetuximab A. and B. RKO cells were treated with cetuximab (50 μg/ml) (A) of gefitinib (B) alone, or in combination with SRI 31215 (10 μM), JNJ 38877605 (1 μM) or recombinant HAI-1 (20 nM) as indicated and clonogenic growth was monitored as described in Materials and Methods. C. and D. Caco2 cells were treated with cetuximab or gefitinib alone or in the presence of CM from fibroblasts and SRI 31215 (10 μM) or JNJ 38877605 (1 μM) as indicated. #: p<0.05, compared to control (CTRL); NS: not significant.
Cell titer-glo luminescent cell viability assay kit was purchased from Promega. […] For clonogenic assay, cells were seeded in 6-well plates at a density of 400 cells per well, serum starved overnight, and treated as indicated. After colony formation (8-12 days), cells were stained with crystal violet and the number of colonies was determined using ImageQuantTL (GE Health Care Life Sciences).
Supplementary Figure S3: Inhibition of HGF/MET signaling sensitizes HGF-producing RKO colon cancer cells to gefitinib. A. RKO cells (HGF+) and B. HT29 (HGF-) cells were treated with gefitinib (5 μM) in the absence or the presence of SRI 31215 (10 μM) or JNJ 38877605 (1 μM) as indicated and viability was determined 24 and 72 hours after treatment. # indicates statistical significance compared to samples treated with gefitinib alone as determined by Students’ t-test (p<0.05).
(also on this page, place not known: www.impactjournals.com/oncotarget/ Oncotarget, Materials 2016 Supplementary (HGF +) (HGF -)) […]

| HGFA-induced cleavage of pro-HGF into alpha and beta chains (recombinant human HGFA) | Molecule | levels of β-catenin (DiFi cells) | clonogenic growth, agent alone (RKO cells) | clonogenic growth, combination with cetuximab (RKO cells; cetuximab 50 μg/ml) |
| --- | --- | --- | --- | --- |
| – | COc1cc2ncnc(Nc3ccc(F)c(Cl)c3)c2cc1OCCCN1CCOCC1 [Gefitinib] | reduced | – | – |
| inhibited | HAI-1: recombinant human HAI-1, endogenous inhibitor of HGF activation, positive control (protein, UniProt O43278 36-529, looked up) Kunitz-type protease …: GPPPAPPGLPAGADCLNSFTAGVPGFVLDTNASVSNGATFLESPTVRRGWDCVRACCTTQNCNLALVELQPDRGEDAIAACFLINCLYEQNFVCKFAPREGFINYLTREVYRSYRQLRTQGFGGSGIPKAWAGIDLKVQPQEPLVLKDVENTDWRLLRGDTDVRVERKDPNQVELWGLKEGTYLFQLTVTSSDHPEDTANVTVTVLSTKQTEDYCLASNKVGRCRGSFPRWYYDPTEQICKSFVYGGCLGNKNNYLREEECILACRGVQGGPLRGSSGAQATFPQGPSMERRHPVCSGTCQPTQFRCSNGCCIDSFLECDDTPNCPDASDEAACEKYTSGFDELQRIHFPSDKGHCVDLPDTGLCKESIPRWYYNPFSEHCARFTYGGCYGNKNNFEEEQQCLESCRGISKKDVFGLRREIPIPSTGSVEMAVAVFLVICIVVVVAILGYCFFKNQRKDFHGHHHHPPPTPASSTVSTTEDTEHLVYNHTTRPL | – | did not impact | significant decrease |
